Results published in the supplement of paper PMC9170038.

Tested on: MS2 coat protein
Test: apparent KD of MS2 coat protein; higher = weaker reporter binding
Settings: Eterna round: R107
Method in brief: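 Apparent KD was obtained for each design as the median of normalised binding-curve fits over its clusters. RNA switches transcribed on-chip from Illumina sequencing clusters were titrated with SNAP-549-labelled MS2 coat protein (twofold steps, 0.7 or 1.5 nM to 3 µM) in 100 mM Tris-HCl pH 7.5, 80 mM KCl, 4 mM MgCl2, without or with constant ligand.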

[1] = input ligand: theophylline 20 uM
[2] = input ligand: theophylline 2 mM
[3] = input ligand: tryptophan 2.4 mM

Sequence	apparent KD of MS2 coat protein (input ligand: arginine 13.2 mM) [nM]	apparent KD of MS2 coat protein (input ligand: none) [nM]	apparent KD of MS2 coat protein [1] [nM]	apparent KD of MS2 coat protein [2] [nM]	apparent KD of MS2 coat protein [3] [nM]
AUAUUAAUCGGAAGGAGCGGUACAUGAGGAUCACCCAUGUGCUAAGCUAGCAGAUCCCGUUACCAGGUAGGUCGCCGAGUUAUGA [Titeonra]	35.6	24	30.9	29.5	23.4
AUAUUAGACCUGGAUACCAGCGACAUGAGGAUCACCCAUGUAUGUGCAUCAGCCAUGAUAUGCCCUUGGCAGCCACCGAGGUCGU [YYTMULLIN]	14.1	–	17.9	–	15.1
AUCAUGGCCAUCGAUACCAGCUACAUGAGGAUCACCCAUGUAAACGGCCCGGUGAGAUGUAGCCCUUGGCAGCGAAGGGUCAAGG [Ratimatiqu]	12.4	16.5	23.1	120	17
AUCCAUAGCCGAAGGAGCGCAGUAGGAUGACAUGAGGAUCACCCAUGUGUGUGAUGUGGAUUGCAGGUAGGUCGCGGAGUGGGAU [Exclusion - Arginine B (Freestyle 6)]	35	58.7	135	63	47.2
AUCGUACCUGAUGAUACCAGCAAUUGCUCGUAACAUGAGGAUCACCCAUGUGAUCAGUGAUGCCCUUGGCAGCAUGAUCGGUGCA [Same State - Theophylline B (Freestyle 19)]	52.8	–	183	–	248
AUCGUACCUGGUGAUACCAGCAAUUGCUCGUGACAUGAGGAUCACCCAUGUGGCCAGUGAUGCCCUUGGCAGCAUGGUCGGUGCA [Same State - Theophylline B (Freestyle 24)]	72.4	–	167	–	122
AUGCAACAUGAGGAUCACCCAUGUGGUGAUACCAGUCGACAAGUAGACCCUUGGCAGCACAGCCGAUAUCGAGAGAGAUUUUUGG [theeternabot_sameState_MS2_Theo_A_23]	64.4	–	476	–	824
AUGCCGGGCCGAAGGAGCGCAAUAGAAUGACAUGAGGAUCACCCAUGUGUGUGAUGUGGGUUGCAGGUAGGUCGCGGCCCGGCAU [#12 Exclusion - Arginine B]	17.6	42.1	80.2	62.7	68.3
AUGUCGUUGAAUAUAGCGGCUUGGAGUGAUACCAGCAUGAUCCAAUGCCCUUGGCAGCAUAACAUGAGGAUCACCCAUGUUCCAG [SSTheo A #26]	32.7	–	68.7	–	30.1
AUUCAUAACUGAAGGAGCGUGAUAUAAAUUUUUACAUGAGGAUCACCCAUGUUUCAUCGAUCACAGGUAGGUCGCAGAUUCUCAU [JR_SSArginiB_Sub012]	31.1	55.3	59.1	45.1	37.9
AUUGUGAACCUGAUCGUAUAAUGUAGCGAUACCAGUAUAAUACAUUACCCUUGGCAGCGCGACACAUGAGGAUCACCCAUGUAAG [theeternabot_exclusion_MS2_Theo_A_10]	19.6	–	26.9	–	23
AUUUAUGGUCGUGAUACCAGACAUACAUGAGGAUCACCCAUGUGAAAUAACAUAAUUUAGGUCCCUUGGCAGCACUUUUUAAUUA [JR_Nu_SSTheophyB_Sub020]	43.9	–	63.6	–	52.4
AUUUAUUGUCGUGAUACCAGACAUACAUGAGGAUCACCCAUGUUAAGUAACAUUUUUUAGGUCCCUUGGCAGCACUUUUUAAUUA [JR_Nu_SSTheophyB_Sub018]	30.2	–	36.1	–	25.4
CAAGACAUGAGGAUCACCCAUGUGGUGUACCGAGGACCGGUACGGCCGCCACUCGUUCAUCGGUCGACAAGCUACCCUUCAAGGU [theeternabot_sameState_MS2_Trp_A_7]	25.5	–	40.4	27.7	–
CAAUGCGGUUAGGAUACCAGCGACACACACUUCUCACAACACAUGAGGAUCACCCAUGUCCGCCCUUGGCAGCCUUGACUAAGGU [theeternabot_exclusion_MS2_Theo_B_39]	30.2	–	51.8	–	27.2
CACGAAAGAUCGGCCGCCACUAAUCGAUGUGUUCUUUCACAUGAGGAUCACCCAUGUUCUUGCGUUAGGACCGGGAUUGAGCGUG [#01 Exclusion Tryptophan B]	32.1	–	50.1	52.4	–
CACGAAAGAUCGGCCGCCACUCAUGUUUCUUACAUGAGGAUCACCCAUGUAUUUUCUUUCUUUUAGAGGACCGGGAUCGAGCGUG [#01 Same State - Tryptophan B]	46.8	–	78.4	47.2	–

Sequence	apparent KD of MS2 coat protein (input ligand: arginine 13.2 mM) [nM]	apparent KD of MS2 coat protein (input ligand: none) [nM]	apparent KD of MS2 coat protein [1] [nM]	apparent KD of MS2 coat protein [2] [nM]	apparent KD of MS2 coat protein [3] [nM]
CAGGCCUUGCCCGGUGUUCCGAAAGUGGAAGGAGCGCACAUUGGUGCAGGUAGGUCGCCACAUGAGGAUCACCCAUGUCUAGGCC [Aveatti]	54.9	20	111	22.5	50.2
CAUACUUUAGUAUGACAUGUGGGCAGUGAUACCAGAUACGAAAGUAUCCCUUGGCAGCACAACAUGAGGAUCACCCAUGUAAUUA [Theophylline A 2]	26.1	–	52	–	37.3
CAUCCUAGUACAUGAGGAUCACCCAUGUAUCGAGGACCGGUACGGCCGCCACUCGAAUGGCGGAUCGUUGAUCCUUUAGGAUGAA [Tryp A Ex t4]	16.5	14.3	20.7	20.9	19.2
CAUGGGCUAAGACAUUAUUCGUAUUUUGAUACCAGAAAAUUGGCGUUCCCUUGGCAGCAAUAUACAUGAGGAUCACCCAUGUCCC [theeternabot_exclusion_MS2_Theo_A_23]	38.8	–	70.9	–	58.3
CCAUCUUCAUCGGCCGCCACUGAACCAAGGAGACAUGAGGAUCACCCAUGUAUGGGAAACCAUCAUAGGACCGGGAUGAAGGUGG [doubleHookLine]	36	–	56.1	48.1	–
CCAUGCGUAGGAAGGAGCGCAUACUUCACAUGAGGAUCACCCAUGUCGAGACGUGAGUCAGUGCAGGUAGGUCGCCUACGCAUGG [Same State - Arginine B (Freestyle 27)]	16.6	17.6	24.3	20.6	19.4
CCCUGGGUGGGAAGGAGCGCAUAGUGAACAUGAGGAUCACCCAUGUGCAGACGUGAGUCAUUGCAGGUAGGUCGCCCACCCAGGG [SS-ArgB22]	10.2	18.9	21.4	30.2	20.9
CCGAACAUGAGGAUCACCCAUGUUAGGGAUACCAGCUCAGACAUGGGCCCUUGGCAGCUCUAUAGCUGACGAAAGUCAGCAUCGG [#15 SameState-TheophyllineA]	36.1	35	46.3	23.7	35.4
CCGGAGACCUCGGCCGCCACUCUCCAUGAGGAUCUCCCAUGUAACAUGAGGAUCACCCAUGUGCUGAGGACCGGGAGGUCCUCCU [Same State Tryptophan B GF 20]	18.7	13.2	16.4	17	20.9
CCGGGCCCGGGCGACCGGGCCCGGACUGAAGGAGCGGGAAUAAACCCAGGUAGGUCGCAGAGAUCCACAUGAGGAUCACCCAUGU [!0.V]	31.7	30.9	49.6	50.9	48.6
CCUCGAUUUUGAUACCGAUAUGUCUUUGAUACCAGCGCCAUAGUACGCCCUUGGCAGCAAGAAACAUGAGGAUCACCCAUGUUAA [theeternabot_exclusion_MS2_Theo_A_36]	16.9	–	26.4	–	16.7
CCUCGUGCAACAUGAGGAUCACCCAUGUACCGAGGACCGGUACGGCCGCCACUCGAAAACGAGUACCAUUAGCGAAAGCUGAUGG [Trp A SS mod1]	11.9	13.1	16.4	14.2	14.1
CCUGAUAACUGAAGGAGCGAGAAACCCUACAUGAGGAUCACCCAUGUAUACACGGGAACUUCUCAGGUAGGUCGCAGUAUGUCGG [Rienat]	71.2	80.2	106	145	93
CCUUAACAUGAGGAUCACCCAUGUCUGGAUACCAGAUACAGAUAAAUCCCUUGGCAGCCAAAAUAUGAAAGAAAUAAAAUAAGAA [theeternabot_sameState_MS2_Theo_A_29]	27.5	–	66.3	–	50.2
CGACGAGACCUGGAUACCAGCGACAUGAGGAUCACCCAUGUAUGUGGAUCAGCCAUGAUAUGCCCUUGGCAGCCACCGAGGUCGG [PPPMULLIN]	7.81	11.6	20.8	31.7	12.3
CGAGCUGACGGAAGGAGCGAAGCCUACUCGGUGUUCCCACAUGAGGAUCACCCAUGUGGGCUUCAGGUAGGUCGCCGAACAGUCG [Vecequlala]	26.1	40.7	61	86.9	32.4
CGAGUGCUGUCGGCCGCCACUGCACAUGAGGAUCACCCAUGUAAAAGCUGGCUGUGACUGGUGUUCAGGACCGGGACAGGGUCUU [Inriedzaan]	10.9	–	13.8	11.7	–
